# Source: patent publication US20180201951A1
# Biological target: interleukin 1 receptor 1 (Il1r1), murine (mouse) (UniProt P13504)
# Assay: cell-based or functional assay
# UniProt P13504, sequence (P13504 20-576): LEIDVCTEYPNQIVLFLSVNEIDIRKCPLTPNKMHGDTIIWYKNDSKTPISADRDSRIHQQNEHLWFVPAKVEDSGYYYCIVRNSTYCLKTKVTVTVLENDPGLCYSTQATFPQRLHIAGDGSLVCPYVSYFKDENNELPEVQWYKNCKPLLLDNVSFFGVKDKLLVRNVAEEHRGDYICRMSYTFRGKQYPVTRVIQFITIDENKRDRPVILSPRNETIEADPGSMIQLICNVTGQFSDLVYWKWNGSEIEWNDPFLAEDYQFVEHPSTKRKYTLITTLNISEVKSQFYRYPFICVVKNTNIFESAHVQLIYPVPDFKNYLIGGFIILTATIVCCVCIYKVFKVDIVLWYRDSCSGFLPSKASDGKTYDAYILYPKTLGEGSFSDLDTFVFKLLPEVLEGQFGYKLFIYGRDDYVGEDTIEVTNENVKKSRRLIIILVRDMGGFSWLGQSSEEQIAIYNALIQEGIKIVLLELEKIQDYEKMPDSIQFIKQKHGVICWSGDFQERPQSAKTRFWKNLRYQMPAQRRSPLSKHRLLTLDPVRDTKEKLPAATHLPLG
substance,measurement,value
IL-1α (ligand),"NF-κB transcriptional activity (luciferase reporter), fold induction after IL-1α stimulation of Il1r1+/- cells",4.8 fold
same,"NF-κB transcriptional activity (luciferase reporter), fold induction after IL-1α stimulation of wild-type (Il1r1+/+) cells",6.3 fold
